No end group written: not given here.
biological target: gastrin-releasing peptide receptor (GRP-r) (Homo sapiens, UniProt P30550); test: radioligand saturation binding on PC-3 cells
Sequence (P30550 whole entry): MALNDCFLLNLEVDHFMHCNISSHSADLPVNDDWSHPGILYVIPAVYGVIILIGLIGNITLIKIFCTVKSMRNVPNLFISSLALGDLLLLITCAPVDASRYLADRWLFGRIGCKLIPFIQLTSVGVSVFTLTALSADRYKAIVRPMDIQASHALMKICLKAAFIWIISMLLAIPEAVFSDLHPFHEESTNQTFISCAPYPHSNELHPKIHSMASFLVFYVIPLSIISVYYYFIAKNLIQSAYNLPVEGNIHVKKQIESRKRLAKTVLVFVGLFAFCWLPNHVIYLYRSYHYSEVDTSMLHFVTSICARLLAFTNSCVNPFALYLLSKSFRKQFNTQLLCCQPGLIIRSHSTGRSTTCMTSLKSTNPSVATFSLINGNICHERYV

Binder | Kd
QWAVGHL (not fully specified (C-terminus); also: (βAla)3 spacer, triazole-Lys 99mTc(CO)3 chelate, succinyl-linked shepherdin KHSSG) [[99mTc(CO)3(14)] BBS-shepherdin(79-83) conjugate] | 10.9 nM
QWAVGHL (not fully specified (N-terminus, C-terminus); also: triazole 99mTc(CO)3 chelate, methyl group in place of shepherdin) [[99mTc(CO)3(16)] BBS reference conjugate] | 5.6 nM
QWAVGHL (not fully specified (C-terminus); also: (βAla)3 spacer, triazole-Lys 99mTc(CO)3 chelate, succinyl-linked scrambled shepherdin SGKHS) [[99mTc(CO)3(15)] BBS-scrambled shepherdin(79-83) conjugate] | 11.3 nM
